For assay [1], the target named is T1, CD20 expressed on cells (human Daudi Burkitt's lymphoma cells); CD20-transfected mouse NS0 cells; human … (human, UniProt P11836 1-297).
T1 construct: whole, on cells; SU-DHL4 cells also express CD47 at low levels; also called NS0/CD20
T1 sequence (looked up): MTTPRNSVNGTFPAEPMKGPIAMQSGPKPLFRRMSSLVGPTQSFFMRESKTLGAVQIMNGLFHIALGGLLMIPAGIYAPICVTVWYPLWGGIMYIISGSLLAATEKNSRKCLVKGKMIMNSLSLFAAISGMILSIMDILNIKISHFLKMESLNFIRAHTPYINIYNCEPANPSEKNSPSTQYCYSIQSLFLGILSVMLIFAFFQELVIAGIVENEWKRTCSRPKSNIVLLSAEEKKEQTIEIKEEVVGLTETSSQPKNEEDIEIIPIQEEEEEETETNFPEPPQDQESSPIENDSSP
Put plainly: flow cytometry on CD20-expressing cells (Daudi by legend paragraph 36 and paragraph 140; the method paragraph 139 names Ramos), detection with TRITC F(ab')2 goat anti-human IgG Fcγ.

Assay [2] deals with FcγRIII (CD16) on NK cells (human, UniProt P08637 17-254). Description: cell-based or functional assay.
For assay [3], the target named is T1, CD20 expressed on cells (human Daudi …). Description: flow cytometry on Daudi cells (CD20+, CD52-), detection with TRITC F(ab')2 goat anti-human IgG Fcγ. (Flow cytometry measures light scatter and fluorescence of single cells or particles in a stream.)
The target in assay [4] is T2, CD47 expressed on cells (human U937 histiocytic lymphoma cells; human SU-DHL4 cells; human A431 cells) (human, UniProt Q08722 19-323).
T2 construct: whole, on cells
Description: flow cytometry on U937 cells (CD47+, CD20-), detection with TRITC F(ab')2 goat anti-human IgG Fcγ.

Assay [5] deals with T1, CD20 expressed on cells (human Daudi …). Description: flow cytometry on CD20-transfected NS0 cells, detection with TRITC F(ab')2 goat anti-human IgG Fcγ.

FcγRIII (CD16) on NK cells, sequence (P08637 17-254): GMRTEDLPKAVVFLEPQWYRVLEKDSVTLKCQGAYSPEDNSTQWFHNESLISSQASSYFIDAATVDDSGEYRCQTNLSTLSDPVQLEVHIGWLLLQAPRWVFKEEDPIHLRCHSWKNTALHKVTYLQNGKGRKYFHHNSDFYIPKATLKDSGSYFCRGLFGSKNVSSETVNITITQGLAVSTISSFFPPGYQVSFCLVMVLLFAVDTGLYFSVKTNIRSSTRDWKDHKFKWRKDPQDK

B1: anti-CD20/anti-CD16 TetBiAb (bispecific antibody)
chain: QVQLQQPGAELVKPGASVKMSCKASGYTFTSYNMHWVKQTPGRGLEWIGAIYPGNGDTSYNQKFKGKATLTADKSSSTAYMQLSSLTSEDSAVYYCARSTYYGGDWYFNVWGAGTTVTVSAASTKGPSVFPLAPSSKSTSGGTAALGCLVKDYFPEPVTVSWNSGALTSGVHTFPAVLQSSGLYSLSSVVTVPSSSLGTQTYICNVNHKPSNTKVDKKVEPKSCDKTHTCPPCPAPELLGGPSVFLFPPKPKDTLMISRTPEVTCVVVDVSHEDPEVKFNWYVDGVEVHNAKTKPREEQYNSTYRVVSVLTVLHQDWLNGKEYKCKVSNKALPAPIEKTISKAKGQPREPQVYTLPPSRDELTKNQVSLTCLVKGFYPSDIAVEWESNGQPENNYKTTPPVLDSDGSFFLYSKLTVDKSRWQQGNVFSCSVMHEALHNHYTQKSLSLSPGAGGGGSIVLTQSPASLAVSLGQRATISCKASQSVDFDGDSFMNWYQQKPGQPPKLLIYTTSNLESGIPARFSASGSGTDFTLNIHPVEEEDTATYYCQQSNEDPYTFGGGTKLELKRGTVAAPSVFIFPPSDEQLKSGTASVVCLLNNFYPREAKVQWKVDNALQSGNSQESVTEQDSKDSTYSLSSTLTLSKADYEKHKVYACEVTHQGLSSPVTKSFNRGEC
light: QIVLSQSPAILSASPGEKVTMTCRASSSVSYIHWFQQKPGSSPKPWIYATSNLASGVPVRFSGSGSGTSYSLTISRVEAEDAATYYCQQWTSNPPTFGGGTKLEIKRGTVAAPSVFIFPPSDEQLKSGTASVVCLLNNFYPREAKVQWKVDNALQSGNSQESVTEQDSKDSTYSLSSTLTLSKADYEKHKVYACEVTHQGLSSPVTKSFNRGEC
heavy: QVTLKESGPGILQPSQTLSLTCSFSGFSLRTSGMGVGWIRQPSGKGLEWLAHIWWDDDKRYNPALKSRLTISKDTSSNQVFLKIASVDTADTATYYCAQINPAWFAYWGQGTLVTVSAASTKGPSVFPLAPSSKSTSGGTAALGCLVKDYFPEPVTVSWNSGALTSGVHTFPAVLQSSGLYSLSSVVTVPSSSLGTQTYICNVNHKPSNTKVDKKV
notes: Hexameric TetBiAb from 2B8 and 3G8, IgG1 Fc
Regarding B1, the “EC50 (read off the curve)” value in assay [1] is around 3 µg/mL. In addition, in assay [2], the “antibody-dependent cell-mediated cytotoxicity (ADCC), LDH release from Ramos cells with NK effector cells” value came out at 10 fold.

B2: anti-CD20/anti-CD52 TetBiAb (bispecific antibody, human IgG1, kappa)
chain: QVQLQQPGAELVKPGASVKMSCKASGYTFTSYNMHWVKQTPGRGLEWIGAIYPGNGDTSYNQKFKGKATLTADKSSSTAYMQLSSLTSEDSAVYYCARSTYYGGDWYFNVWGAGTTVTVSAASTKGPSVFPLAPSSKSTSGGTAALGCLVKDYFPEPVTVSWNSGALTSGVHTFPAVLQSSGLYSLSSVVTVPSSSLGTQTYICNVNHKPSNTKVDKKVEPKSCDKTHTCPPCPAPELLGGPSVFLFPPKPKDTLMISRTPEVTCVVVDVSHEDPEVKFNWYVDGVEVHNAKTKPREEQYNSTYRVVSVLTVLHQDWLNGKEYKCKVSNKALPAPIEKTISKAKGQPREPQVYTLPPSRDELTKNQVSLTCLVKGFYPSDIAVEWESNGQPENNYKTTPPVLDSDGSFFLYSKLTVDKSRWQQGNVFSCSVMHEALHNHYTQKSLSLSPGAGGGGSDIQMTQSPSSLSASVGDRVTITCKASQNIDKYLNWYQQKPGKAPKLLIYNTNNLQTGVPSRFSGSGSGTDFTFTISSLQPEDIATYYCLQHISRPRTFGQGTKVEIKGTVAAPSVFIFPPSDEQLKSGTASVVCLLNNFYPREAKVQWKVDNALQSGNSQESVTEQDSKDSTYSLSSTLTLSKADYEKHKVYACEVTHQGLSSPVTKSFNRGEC
light: QIVLSQSPAILSASPGEKVTMTCRASSSVSYIHWFQQKPGSSPKPWIYATSNLASGVPVRFSGSGSGTSYSLTISRVEAEDAATYYCQQWTSNPPTFGGGTKLEIKRGTVAAPSVFIFPPSDEQLKSGTASVVCLLNNFYPREAKVQWKVDNALQSGNSQESVTEQDSKDSTYSLSSTLTLSKADYEKHKVYACEVTHQGLSSPVTKSFNRGEC
heavy: QVQLQESGPGLVRPSQTLSLTCTVSGFTFTDFYMNWVRQPPGRGLEWIGFIRDKAKGYTTEYNPSVKGRVTMLVDTSKNQFSLRLSSVTAADTAVYYCAREGHTAAPFDYWGQGSLVTVSAASTKGPSVFPLAPSSKSTSGGTAALGCLVKDYFPEPVTVSWNSGALTSGVHTFPAVLQSSGLYSLSSVVTVPSSSLGTQTYICNVNHKPSNTKVDKKVEPKSC
notes: Hexameric TetBiAb from 2B8 and Campath, IgG1 Fc
As for B2, in assay [3], the “EC50 (read off the curve)” value is around 5 µg/mL.

B3: anti-CD20/anti-CD47 TetBiAb (bispecific antibody, human IgG1, kappa)
chain: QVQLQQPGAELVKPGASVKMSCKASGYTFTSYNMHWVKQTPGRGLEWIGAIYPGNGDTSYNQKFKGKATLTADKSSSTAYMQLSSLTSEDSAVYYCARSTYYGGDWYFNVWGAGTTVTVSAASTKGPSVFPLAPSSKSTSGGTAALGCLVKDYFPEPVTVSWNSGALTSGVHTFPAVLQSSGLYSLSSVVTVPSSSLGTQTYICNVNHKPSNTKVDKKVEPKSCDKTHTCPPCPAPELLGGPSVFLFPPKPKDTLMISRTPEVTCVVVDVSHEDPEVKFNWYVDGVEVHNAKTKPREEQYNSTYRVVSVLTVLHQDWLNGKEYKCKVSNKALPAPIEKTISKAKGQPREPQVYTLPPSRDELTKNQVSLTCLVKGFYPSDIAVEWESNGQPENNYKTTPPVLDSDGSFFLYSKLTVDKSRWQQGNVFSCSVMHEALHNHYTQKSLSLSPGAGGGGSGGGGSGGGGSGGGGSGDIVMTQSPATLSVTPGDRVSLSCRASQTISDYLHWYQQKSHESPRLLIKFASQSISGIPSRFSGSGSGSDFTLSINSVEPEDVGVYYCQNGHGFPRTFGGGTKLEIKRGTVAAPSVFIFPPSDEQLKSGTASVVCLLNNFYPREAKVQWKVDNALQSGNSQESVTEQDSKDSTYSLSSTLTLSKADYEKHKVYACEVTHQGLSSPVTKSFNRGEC
light: QIVLSQSPAILSASPGEKVTMTCRASSSVSYIHWFQQKPGSSPKPWIYATSNLASGVPVRFSGSGSGTSYSLTISRVEAEDAATYYCQQWTSNPPTFGGGTKLEIKRGTVAAPSVFIFPPSDEQLKSGTASVVCLLNNFYPREAKVQWKVDNALQSGNSQESVTEQDSKDSTYSLSSTLTLSKADYEKHKVYACEVTHQGLSSPVTKSFNRGEC
heavy: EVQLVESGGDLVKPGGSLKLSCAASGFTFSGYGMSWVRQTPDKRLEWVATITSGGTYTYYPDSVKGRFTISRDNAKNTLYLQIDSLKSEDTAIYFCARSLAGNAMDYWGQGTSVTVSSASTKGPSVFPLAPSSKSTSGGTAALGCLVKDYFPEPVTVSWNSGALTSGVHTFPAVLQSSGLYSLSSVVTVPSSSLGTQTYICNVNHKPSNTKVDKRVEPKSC
notes: Hexameric TetBiAb from 2B8 and B6H12, IgG1 Fc; Alexa 488-labelled in the SU-DHL4 assay
Consider B3, for which, in assay [4], the “EC50 (read off the curve)” value is around 10 µg/mL. The binding result in assay [5] was “binds”.

B4: anti-CD52/anti-CD20 TetBiAb (bispecific antibody, human IgG1, kappa)
chain: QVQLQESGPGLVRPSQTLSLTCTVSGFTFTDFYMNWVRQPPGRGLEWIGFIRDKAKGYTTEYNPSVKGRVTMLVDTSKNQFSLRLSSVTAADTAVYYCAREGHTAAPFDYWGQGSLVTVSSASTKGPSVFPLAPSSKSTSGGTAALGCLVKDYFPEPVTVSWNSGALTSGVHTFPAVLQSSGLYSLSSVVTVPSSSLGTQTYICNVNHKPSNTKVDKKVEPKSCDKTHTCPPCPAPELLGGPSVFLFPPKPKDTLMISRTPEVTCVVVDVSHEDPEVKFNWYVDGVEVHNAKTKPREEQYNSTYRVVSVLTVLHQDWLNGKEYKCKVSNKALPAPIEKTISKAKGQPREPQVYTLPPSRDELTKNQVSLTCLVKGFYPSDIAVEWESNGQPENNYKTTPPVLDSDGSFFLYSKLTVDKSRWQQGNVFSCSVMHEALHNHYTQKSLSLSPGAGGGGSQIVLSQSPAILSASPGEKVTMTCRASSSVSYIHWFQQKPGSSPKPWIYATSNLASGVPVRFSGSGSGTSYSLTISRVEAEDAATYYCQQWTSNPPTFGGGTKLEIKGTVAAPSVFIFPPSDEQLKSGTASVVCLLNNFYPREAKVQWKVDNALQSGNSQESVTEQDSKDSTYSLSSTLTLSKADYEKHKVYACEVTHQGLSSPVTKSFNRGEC
light: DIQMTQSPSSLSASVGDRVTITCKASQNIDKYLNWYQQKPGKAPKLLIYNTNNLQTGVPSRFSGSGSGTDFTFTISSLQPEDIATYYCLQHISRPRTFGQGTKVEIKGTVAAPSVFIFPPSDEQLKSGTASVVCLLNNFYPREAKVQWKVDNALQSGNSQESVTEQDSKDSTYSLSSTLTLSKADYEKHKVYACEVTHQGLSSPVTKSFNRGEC
heavy: QVQLQQPGAELVKPGASVKMSCKASGYTFTSYNMHWVKQTPGRGLEWIGAIYPGNGDTSYNQKFKGKATLTADKSSSTAYMQLSSLTSEDSAVYYCARSTYYGGDWYFNVWGAGTTVTVSAASTKGPSVFPLAPSSKSTSGGTAALGCLVKDYFPEPVTVSWNSGALTSGVHTFPAVLQSSGLYSLSSVVTVPSSSLGTQTYICNVNHKPSNTKVDKKVEPKSC
notes: Hexameric TetBiAb from Campath and 2B8, IgG1 Fc
Turning to B4, in assay [3], the binding result is reported as “no binding (tested: 100 µg/ml)”.

By EC50 (read off the curve) is commonly meant the concentration at which the effect is half-maximal.
